According to patent publication US20140289906A1, “Compositions Having Dicamba Decarboxylase Activity and Methods of Use” (priority 2013, published 2014):

B1: 106 (protein, listed as Pyrococcus horikoshii)
chain: MAGMKFIKNLHVSKLVIDSMKALINGTIYTSFNPLKKVSGLVISHGKVIYAGDSEVAKKIVELSGGEIVDLKGKYVMPAFFDSHLHLDELGMSLEMVDLRGAKSIEELIQRLKRGKGRIIFGFGWDQDELGEWPTRKELNAIDKPVFIYRKCFHVAVANDKMLELLNLTPSKDFDEDTGIIKEKSLEEARKVINERVLTVEDYVYYIKRAQEHLLDLGVKSVSFMSVNEKALRALFYLEREGKLSINVFAYVTPEVLDKLESIGLGRFQGNRLTIAGVKLFTDGSLGARTALLSKPYSDDPSTSGQLVMEREELIRITEKARSLGLDVAIHAIGDKALDVALDVFETTGFPGRIEHASLVRDDQLERVKNLKVRLSVQPHFIISDWWIVERVGEERVKWVYRFKDLMKVAELGFSTDSPIEPADPWLTVDAAVNRGKGKVKLYELTKDQALDIKDALHSYTYGSARVSLASDIGKLEPGFKAEYIILDRDPLVVK
B2: 11 (protein)
chain: MALGKIALEEAFALPRFEEKTRWWASLFSVDPETHVKEITDINKLRIEHADKYGVGYQILSYTAPGVQDIWDPVEAQALAVEINDYIAEQIRDKPDRFGAFATLSMHNPQEAASELRRCVQTYGFKGALVNDTQRAGPDGDDMIFYDNASWDIFWQTCTELDVPLYLHPRNPTGTIYEKLWADRKWLVGPPLSFAQGVSLHVLGMVTNGVFDRHPNLQLIMGHLGEHVPFDMWRINHWFEDRKKLLGLAETCKKTIREYFAQNIWITTSGHFSTTTLNFCMAEVGVDRILFSIDYPFETFEDACVWFDGAELNLSDKAKIGRDNAARLFKLGAFRDYDAKVKA
modifications: Aspergillus niger
B3: 15 (protein, listed as Metarhizium anisopliae)
chain: MAQEIAKSHETSTRFAGFAVLPMRDPEAAAKELERAVKKLGFVGALVDHKTAHGNGFCEGNEYDVLWRKAEQLAVPIYLHPSWPTEKQFQQAYAGNYSPTAAGTIGGAMFNWHSEVGHHVLRLYAAGVFDKFPKLKIIIGHFGEMIPYMLDRIREQDHRLGKTGRTFSEVYDENIWITTSGVWSLDPMRCILANTKIDHILYSVDYPFTMNERGLEWFQELEKSGLLSEEDLALIAYKNCEKLLGVKAPTQD
B4: 17 (protein)
chain: MARGKIALEEAFEVKGMDEEIDAQAALYIAPKDVERYKRQIVSITDERLQLSDQNGIGYSILSLTVPGIQGITDKDKAEKRARDVNNYIHDQIKDHRDRLGAFAALSMHDPRQAGHELRRCVKELGFHGALLNDVQHTGEGDDDQPLFYDQPDYDEFWRVAVELDVPVYLHPAAPLRDTLIYKQSYEDRKYLVGPPQSYCNGVALHLMGIIVNGVFDRFPNLKVIVGHMGERIPFDFWRMDHWVKGVTRPLAEKNGDTVCQKEPLYYFKRNIYITTSGHFSTQNLRYLYEWLGDERMMFSVDFPYERMEHGCQWYDDDAEKIKEALGGRDGYLRVGRDNARRLFKLTKFKDCDAV
modifications: Aspergillus niger
B5: 104 (protein)
chain: MANILQEPIDFLKKEELKNIDLSQMSKKERYKIWKRIPKCELHCHLDLCFSADFFVSCIRKYNLQPNLSDEEVLDYYLFAKGGKSLGEFVEKAIKVADIFHDYEVIEDLAKHAVFNKYKEGVVLMEFRYSPTFVAFKYNLDIELIHQAIVKGIKEVVELLDHKIHVALMCIGDTGHEAANIKASADFCLKHKADFVGFDHGGHEVDLKEYKEIFDYVRESGVPLSVHAGEDVTLPNLNTLYSAIQVLKVERIGHGIRVAESQELIDMVKEKNILLEVCPISNVLLKNAKSMDTHPIRQLYDAGVKVSVNSDDPGMFLTNINDDYEELYTHLNFTLEDFMKMNEWALEKSFMDSNIKDKIKNLYF
modifications: Plasmodium Vivax
B6: 10 (protein, listed as Starkeya novella)
chain: MARKIALEEHFTTPELAGKYVARPTQSDALFADIERRLADFDELRLEMMDRAEIDLMVLSVTTPGVQGVRDTGEAIRLARGANDFLAREVQKRPSRYAGFAHLAMQDAEAAATELERAVRELGFRGALINGQTNGHYLDEDQYAPFWERVQELDVPVYLHPGNMADSPAMFAHRPELGGPIWAWTAETAAHALRLVFGGTFTRFPGAKVILGHMGETLPFLLWRLDSRREFDLGEKLAPDALPSAIIKRNIAVTTSGVCDPAPLVAALQALSDDNVMFSVDYPYEDPQLASKFIETAPIGEETRAKVCHGNAERLLGL
B7: 9 (protein, listed as Octadecabacter antarcticus)
chain: MATPKITFEEHFMAPGFEKHSEAFLKLIPRDQAEILTRRLGDFDGERIETMDRGGITRSIISLTGPGTQGEAVEKAVSAAQGANDFLAEKISKKPDRLGGLATLPMHDPDAAARELNRAVNDLGLQGCLVNTHTHGAYYEGTDYDPFWAEVEKLGVPFYLHPSNAYVTPHVLGGMPVLQGATWGWGVETGSHALRILFGGVFDRFPDVKLVLGHMGEALPFLRWRYDSRFGAYPMGVSLDRAPSAYFGSNILITTSGVCSHPSLIGAIGEMGADAVMFSVDYPYEDTDLAVEFIETAPLEDATRVKICHDNAARLFGMPTLAAKEGA
B8: 103 (protein)
chain: MAMEIPTEEIKFLKKEDVQNIDLNGMSKKERYEIWRRIPKVELHCHLDLTFSAEFFLKWARKYNLQPNMSDDEILDHYLFTKEGKSLAEFIRKAISVSDLYRDYDFIEDLAKWAVIEKYKEGVVLMEFRYSPTFVSSSYGLDVELIHKAFIKGIKNATELLNNKIHVALICISDTGHAAASIKHSGDFAIKHKHDFVGFDHGGREIDLKDHKDVYHSVRDHGLHLTVHAGEDATLPNLNTLYTAINILNVERIGHGIRVSESDELIELVKKKDILLEVCPISNLLLNNVKSMDTHPIRKLYDAGVKVSVNSDDPGMFLSNINDNYEKLYIHLNFTLEEFMIMNNWAFEKSFVSDDVKSELKALYF
modifications: Plasmodium yoelii yoelii
B9: 105 (protein)
chain: MAIDFHVHLDLYPDPVAVARACEERQLTVLSVTTTPAAWRGTLALAAGRPHVWTALGFHPEVVSERAADLPWFDRYLPETRFVGEVGLDGSPSLRGTWTQQFAVFQHILRRCEDHGGRILSIHSRRAESEVLNCLEANPRSGTPILHWYSGSVTELRRAISLGCWFSVGPTMVRTQKGAALIRSMPRDRVLTETDGPFLELDGQAALPWDVKSVVEGLSKIWQIPASEVERIVKENVSRLLGTVR
modifications: Deinococcus radiodurans
B10: 8 (protein, listed as Metarhizium anisopliae)
chain: MARGKINFEEAFELPTLADSSREQAALYIAPKDLDRYIYHIKHPLGERLQLANSHGIGYTIYSLTVPGIQGIPDQSKAEQHATTVNDWIANEIKDHRDRLGAFAALSMHDAAQAAAELERCVRQHGFHGALLNNYQHAGPDGETYLFYDQPAYDVFWQKCVELDVPVYLHPAAPAGNYYKQMYAQRKYLVGPPLSFANDVSLHLLGLVTNGVFDRFPKLKVVVGHLGEHIPFDFWRISHWLEDVERPLAAGRGDVMSKKDLLYYFKNNIWVTTSGHFSTPTVRYVADYLGPERIMFSVDTPYETIENGVGWFDGEEDALTRALGGEDGYKKVARENAKKLFKLTKYHDCDA
B11: 13 (protein, listed as Metarhizium acridum)
chain: MAHGKVALEEAFALPRLHEKTRWWASLFAVNPDKHAAEMTDITDIRINYMDKHGVGYTILSYTAPGVQDISDPKEAQALAVEINDYVAGAIKNHPDRFGAFATLSMRNPQEAATELKRCVTQYGFKGALVNDTQRAGEDDMIFYDGPEWDVFWSTVEELDVPFYLHPRNPTGSLYEKLWAKRKWLVGPPLSFAQGVSLHVLGMVTNGVFDRHPKLQVVLGHLGEHIPFDMWRINHWFEDVKKPLGLDCKKTIREYFQQNIWITTSGHFSTTTLQFCMAEVGADRILFSIDYPFECFADACDWYDGVPINLVDKAKIGRDNARRLFKLPEFKDSEKHVDA
B12: 102 (protein, listed as Lactobacillus plantarum)
chain: MATKTFKTLDDFLGTHFIYTYDNGWEYEWYAKNDHTVDYRIHGGMVAGRWVTDQKADIVMLTEGIYKISWTEPTGTDVALDFMPNEKKLHGTIFFPKWVEEHPEITVTYQNEHIDLMEQSREKYATYPKLVVPEFANITYMGDAGQNNEDVISEAPYKEMPNDIRNGKYFDQNYHRLNK
B13: 107 (protein, listed as Rhodopseudomonas palustris)
chain: MAIIDIHGHYTTAPKALEDWRNRQIAGIKDPSVMPKVSELKISDDELQASIIENQLKKMQERGSDLTVFSPRASFMAHHIGDFNVSSTWAAICNELCYRVSQLFPDNFIGAAMLPQSPGVDPKTCIPELEKCVKEYGFVAINLNPDPSGGHWTSPPLTDRIWYPIYEKMVELEIPAMIHVSTSCNTCFHTTGAHYLNADTTAFMQCVAGDLFKDFPELKFVIPHGGGAVPYHWGRFRGLAQEMKKPLLEDHVLNNIFFDTCVYHQPGIDLLNTVIPVDNVLFASEMIGAVRGIDPRTGFYYDDTKRYIEASTILTPEEKQQIYEGNARRVYPRLDAALKAKGK
B14: 14 (protein, listed as Talaromyces marneffei)
chain: MARGKVSFEEAYEIPALADKSREQAALYIAPKDLDRYLSEIKSPTGGRLDISNKNGIGYTIYSLTVPGVQGIADKAKAEKHATDVNNWIYNEIKDHRDRMGAFAALSMHDPVQAGQELERCVKKLGFHGALLNNWQHAGTDGETYIFYDHPSYDVFWQKCVELDVPVYLHPSAPSGKVFDTFFKDRRYLIGPPISFAQDVALHTMGLITNGVFDRNPKLKLILGHLGERIPQDLWRTNHWLEDVERPLADSRGDTMSRKPLLYYFKNNIYVTTSGHFSTETVKFVCDYFGADRILFSVDSPYEKIEEGAGWYDKDKDNLTKALGGPQQYLDVGRENAKKLFKLGKYHDCDA
B15: 12 (protein, listed as Zymoseptoria tritici)
chain: MALGKVAFEEAFALPRFKERTTWWAGLFAVDPEKHTREINDINKLRIEKMDQFGVGYTLLSYTAPGVQDVWQQEEADALAREVNDHVAAEIKGHEDRLGALATLSMHDPQTASAELRRCIKDYGFKGALVNDTQRNDESGTGMIFYDGPEWDVFWSTVQELDVPFYLHPRNPTGVFMEKLWAPRKWLVGPPLSFAQGVSLHLLGMVTNGTFDRFPNLQVIIGHLGEHLPFDLWRINHWFEDIKKPLGLDCKKTIREYFNENIWITTSGHFSTPTLEYCIKEIGAERILFSIDYPFEKFEDACDWYDGVELDGPDTVKKIGRENAKKLFKLGAFKDDSA

Assay: 14C assay: 14CO2 capture from [14C]-carboxyl-labeled dicamba with IPTG-induced recombinant E. coli cells
Conditions: for Dicamba Decarboxylase Activity: IPTG-induced recombinant E. coli cells, 14CO2 from [14C]-carboxyl-labeled dicamba; for Enzymatic Detection level: dicamba decarboxylation activity

| Molecule | Dicamba Decarboxylase Activity | Enzymatic Detection level |
| --- | --- | --- |
| B1 | No | No |
| B2 | Low | Low |
| B3 | Low | Low |
| B4 | Low | Low |
| B5 | No | No |
| B6 | Low | Low |
| B7 | No | No |
| B8 | No | No |
| B9 | No | No |
| B10 | Low | Low |
| B11 | No | No |
| B12 | No | No |
| B13 | No | No |
| B14 | Low | Low |
| B15 | No | No |
